Laboratory results reported in IntAct's records for PubMed 22020126.

B1: Histone acetyltransferase ESA1 (Saccharomyces cerevisiae), Q08649 (parent)
chain: MSHDGKEEPGIAKKINSVDDIIIKCQCWVQKNDEERLAEILSINTRKAPPKFYVHYVNYNKRLDEWITTDRINLDKEVLYPKLKATDEDNKKQKKKKATNTSETPQDSLQDGVDGFSRENTDVMDLDNLNVQGIKDENISHEDEIKKLRTSGSMTQNPHEVARVRNLNRIIMGKYEIEPWYFSPYPIELTDEDFIYIDDFTLQYFGSKKQYERYRKKCTLRHPPGNEIYRDDYVSFFEIDGRKQRTWCRNLCLLSKLFLDHKTLYYDVDPFLFYCMTRRDELGHHLVGYFSKEKESADGYNVACILTLPQYQRMGYGKLLIEFSYELSKKENKVGSPEKPLSDLGLLSYRAYWSDTLITLLVEHQKEITIDEISSMTSMTTTDILHTAKTLNILRYYKGQHIIFLNEDILDRYNRLKAKKRRTIDPNRLIWKPPVFTASQLRFAW
B2: Histone acetyltransferase KAT8 (Homo sapiens), Q9H7Z6 (parent)
chain: MAAQGAAAAVAAGTSGVAGEGEPGPGENAAAEGTAPSPGRVSPPTPARGEPEVTVEIGETYLCRRPDSTWHSAEVIQSRVNDQEGREEFYVHYVGFNRRLDEWVDKNRLALTKTVKDAVQKNSEKYLSELAEQPERKITRNQKRKHDEINHVQKTYAEMDPTTAALEKEHEAITKVKYVDKIHIGNYEIDAWYFSPFPEDYGKQPKLWLCEYCLKYMKYEKSYRFHLGQCQWRQPPGKEIYRKSNISVYEVDGKDHKIYCQNLCLLAKLFLDHKTLYFDVEPFVFYILTEVDRQGAHIVGYFSKEKESPDGNNVACILTLPPYQRRGYGKFLIAFSYELSKLESTVGSPEKPLSDLGKLSYRSYWSWVLLEILRDFRGTLSIKDLSQMTSITQNDIISTLQSLNMVKYWKGQHVICVTPKLVEEHLKSAQYKKPPITVDSVCLKWAPPKHKQVKLSKK

Variants of: B1
Conditions: with h4_yeast HHF1, P02309

Q: K262A was tested. Which “effect of a mutation on the interaction” value did it give?
A: disrupting interaction

Variants of: B1
Conditions: with h4_yeast HHF1, P02309
Remark: another data set of the same source

Q: With K262R as the variant, how does the “effect of a mutation on the interaction” value read?
A: disrupting interaction

Variants of: B1
Conditions: with h4_yeast HHF1, P02309
Remark: another data set of the same source

Q: Which “effect of a mutation on the interaction” value does the source give for K262Q here?
A: decreasing interaction

Variants of: B2
Conditions: with h4_yeast HHF1, P02309

Q: Which “effect of a mutation on the interaction” value does the source give for K274A here?
A: disrupting interaction

Variants of: B2
Conditions: with h4_yeast HHF1, P02309
Remark: another data set of the same source

Q: How did the “effect of a mutation on the interaction” value turn out when K274R was run?
A: disrupting interaction
